Laboratory results as given in paper PMC10804683, “Identification of the pyridoxal 5′‐phosphate allosteric site in human pyridox(am)ine 5′‐phosphate oxidase” (Protein Science : A Publication of the Protein Society, 2024).

Substrate: Cc1ncc(COP(=O)(O)O)c(CN)c1O
Test: purified protein, by the assay type
Details: other: F48A, 50 mM Tris–HCl pH 7.6, 37°C, 2 μM enzyme

B1: human PNPO F48A variant (Homo sapiens; F48A) (protein)
chain: MTCWLRGVTATFGRPAEWPGYLSHLCGRSAAMDLGPMRKSYRGDREAAEETHLTSLDPVKQFAAWFEEAVQCPDIGEANAMCLATCTRDGKPSARMLLLKGFGKDGFRFFTNFESRKGKELDSNPFASLVFYWEPLNRQVRVEGPVKKLPEEEAECYFHSRPKSSQIGAVVSHQSSVIPDREYLRKKNEELEQLYQDQEVPKPKSWGGYVLYPQVMEFWQGQTNRLHDRIVFRRGLPTGDSPLGPMTHRGEEDWLYERLAP
Work on B1 yielded a Km of 100 ± 5 µM and a kcat of 0.1785 ± 0.003 s⁻¹.
